In publication PMC9924070 (Science Translational Medicine, 2021):

Columns and labels:
[1] = biological target: T1, mouse IgG1 Fc-fused SARS-CoV-2 RBD (SARS-CoV-2, UniProt P0DTC2); assay: BLI; conditions: both partners purified
[2] = biological target: T1, mouse IgG1 Fc-fused SARS-CoV-2 RBD; assay: BLI; conditions: both partners purified; remark: listed apart in the source

| Binder | Kd [1] | koff [1] | kon [1] | Kd [2] | koff [2] | kon [2] |
| --- | --- | --- | --- | --- | --- | --- |
| humVHH/WT-Fc (Fc fusion, also called VHH72_h1-GS-hIgG1hinge-hIgG1Fc; construct 4) EVQLVESGGGLVQPGGSLRLSCAASGRTFSEYAMGWFRQAPGKEREFVATISWSGGSTYYTDSVKGRFTISRDNAKNTVYLQMNSLRPEDTAVYYCAAAGLGTVVSEWDYDYDYWGQGTLVTVSS | 0.1 nM | 0.00019 s⁻¹ | 1.9e+06 M⁻¹ s⁻¹ | – | – | – |
| humVHH_S56A/LALAPG-Fc/Gen2 (Fc fusion) DVQLVESGGGLVQPGGSLRLSCAASGRTFSEYAMGWFRQAPGKEREFVATISWSGGATYYTDSVKGRFTISRDNAKNTVYLQMNSLRPEDTAVYYCAAAGLGTVVSEWDYDYDYWGQGTLVTVSS | – | – | – | 0.0408 nM | 6.16e-05 s⁻¹ | 1.52e+06 M⁻¹ s⁻¹ |
| (humVHH)2/WT-Fc (Fc fusion) EVQLVESGGGLVQPGGSLRLSCAASGRTFSEYAMGWFRQAPGKEREFVATISWSGGSTYYTDSVKGRFTISRDNAKNTVYLQMNSLRPEDTAVYYCAAAGLGTVVSEWDYDYDYWGQGTLVTVSSGGGGSGGGGSGGGGSEVQLVESGGGLVQPGGSLRLSCAASGRTFSEYAMGWFRQAPGKEREFVATISWSGGSTYYTDSVKGRFTISRDNAKNTVYLQMNSLRPEDTAVYYCAAAGLGTVVSEWDYDYDYWGQGTLVTVSS | – | – | – | < 0.001 nM | < 1e-07 s⁻¹ | 2.65e+06 M⁻¹ s⁻¹ |
| (humVHH_S56A)2/LALAPG-Fc/Gen2 (Fc fusion) DVQLVESGGGLVQPGGSLRLSCAASGRTFSEYAMGWFRQAPGKEREFVATISWSGGATYYTDSVKGRFTISRDNAKNTVYLQMNSLRPEDTAVYYCAAAGLGTVVSEWDYDYDYWGQGTLVTVSSGGGGSGGGGSGGGGSDVQLVESGGGLVQPGGSLRLSCAASGRTFSEYAMGWFRQAPGKEREFVATISWSGGATYYTDSVKGRFTISRDNAKNTVYLQMNSLRPEDTAVYYCAAAGLGTVVSEWDYDYDYWGQGTLVTVSS | – | – | – | < 0.001 nM | < 1e-07 s⁻¹ | 2.48e+06 M⁻¹ s⁻¹ |
